These results are taken from US20230183329A1, “COMBINATION THERAPY FOR TTR AMYLOIDOSIS” (Neurimmune AG, priority 2020, published 2023).

For series [1] the following is noted: cited from earlier work.
Series [2] deals with T1, TTR tetramers (tetr.WT-TTR) (Homo sapiens, UniProt P02766).
T1 construct: Plasma-purified wtTTR was provided as a solution at a concentration of 2 mg/mL in PBS buffer; from tissue; host or cells: human plasma
The series can be described thus: BLI binding kinetic assay, TTR tetramers. The protocol: (§1) The antibody NI-301.37F1 was loaded on anti-human capture sensors at 5 μg/mL in PBS for 5 min at 25° C. The binding assay was performed with soluble WT-TTR amyloid aggregates and tetrameric WT-TTR. A baseline was performed in 1× kinetic buffer for 3 min, the association was measured for 10 min and the dissociation for another 10 min in 1× kinetic buffer, all steps performed at 25° C. with shaking at 1000 rpm. A reference sample was also included consisting in 1× kinetic buffer.
(§2) Data were analyzed in ForteBio Data Analysis 8.2 software, using reference subtraction and interstep correction between association and dissociation.
NI-301.37F1 absent binding to TTR tetramers was investigated in presence and absence of TTR stabilizers using BLI. Soluble ATTR oligomers were included in this experiment to serve as positive controls. […]

The target of series [3] is misfolded TTR (Homo sapiens, UniProt P02766). Particulars: cited from earlier work.
Series [4] deals with T2, mis.WT-TTR aggregates (Homo sapiens, UniProt P02766).
T2 construct: Plasma-purified wtTTR was provided as a solution at a concentration of 2 mg/mL in PBS buffer; from tissue; host or cells: human plasma
The series can be described thus: Direct ELISA, NI-301.37F1 binding to amyloid wtTTR aggregates in presence of TTR tetramer stabilizers. Particulars: for EC50 value of antibody binding to TTR amyloid: versus vehicle. The protocol:
96 well microplates were coated for 1 hour at 37° C. with mis.WT-TTR aggregates diluted to a concentration of 10 μg/mL in PBS buffer pH7.4. Non-specific binding sites were blocked for 1 hour at room temperature (RT) with a blocking buffer containing 2% bovine serum albumin (BSA) and 0.1% tween-20 in PBS buffer. Human NI-301.37F1 antibody was diluted in duplicates to the indicated concentrations in PBS supplemented with tafamidis or diflunisal at 10 μg/mL or corresponding concentration of vehicle buffer, and incubated overnight at 4° C. Binding was determined using an anti-human IgG antibody conjugated with horseradish peroxidase (HRP), followed by measurement of HRP activity in a standard colorimetric assay.
Data were analyzed with the Prism software from GraphPad. EC50 values were estimated using non-linear regression of individual data points using log(agonist) versus response model with variable slope. Data fitting was performed with the least square regression method.
For the assessment of the binding affinity of anti-TTR antibody in the presence of TTR tetramer stabilizer direct ELISA and EC50 determination has been substantially performed in Example 3 of WO 2015/092077 A1. ELISA plates were coated for 1 h at 37° C. with amyloid wtTTR aggregates and blocked for 1 h at room temperature with blocking buffer (PBS pH 7.4, 1% BSA and 0.1% polysorbate 20).
Tafamidis and diflunisal were dissolved in vehicle (80% PBS pH 7.4, 10% ethanol, 10% polysorbate 80) and antibody NI-301.37F1 dilution series were prepared with tafamidis or diflunisal at a final concentration of 10 μg/mL or a corresponding volume of the vehicle. The concentration of 10 μg/mL is […] the maximal peak concentration in patients treated with tafamidis at 80 mg per day (˜6 μg/mL). NI-301.37F1 dilution series were incubated in the ELISA plates overnight at 4° C., and, after washes, NI-301.37F1 was detected using an horseradish peroxidase (HRP)-coupled anti-human IgG antibody and standard detection methods. Data were analyzed with the Prism software from GraphPad. […]

In series [5] the target is T3, soluble ATTR oligomers (mis.WT-TTR) (Homo sapiens, UniProt P02766).
T3 construct: Plasma-purified wtTTR was provided as a solution at a concentration of 2 mg/mL in PBS buffer; from tissue; host or cells: human plasma
The series can be described thus: BLI binding kinetic assay, soluble ATTR oligomers. Particulars: in presence or absence of AG10 or diflunisal at 5 μg/mL. The protocol:
as §1, §2
NI-301.37F1 absent binding to TTR tetramers was investigated in presence and absence of TTR stabilizers using BLI. Soluble ATTR oligomers were included in this experiment to serve as positive controls.
NI-301.37F1 binding to ATTR oligomers and TTR tetramers was evaluated in presence of the TTR stabilizers AG10 and diflunisal at 5 μg/mL, or in presence of corresponding vehicle buffer using BLI.
In general terms: In BLI a coated tip is dipped into the sample, and binding shifts an interference pattern.

Turning to `O=C(O)c1ccc2nc(-c3cc(Cl)cc(Cl)c3)oc2c1` [tafamidis], in series [1] (human), the mean half-life entry was “approximately 49 hours”. In addition, the maximal peak concentration in series [1] (patients treated with tafamidis at 80 mg per day) is roughly 6 µg/mL.

B1: NI-301.37F1: human-derived monoclonal anti-TTR antibody binding epitope TTR41-45, selective for misfolded TTR, disclosed in WO 2015/092077 A1 (antibody, V domains shown)
VH: QVQLQESGPGLVKPSETLSLTCSVSGGSIISRSSYWGWIRQPPGKGLEWIGGIYHSGNTYDNPSLKSRLTMSVDTSKNQFSLNLRSVTAADTAVYYCARIVPGGDAFDIWGQGTMVTVSS
VL: DIQMTQSPSSLSASVGDRVTIACRASQSVGTYLNWYQQKRGKAPKLLIFAASSLQSGVPSRFSGSGSGTDFTLTISSLQPEDFATYYCQQSYSSPPTFGQGTKVEIK
Take B1: the “binding to TTR-diflunisal complexes” value in series [2] (TTR tetramers in presence of diflunisal) is “did not bind”. Further, the “binding to TTR-tafamidis complexes” value in series [2] (TTR tetramers in presence of tafamidis) is given as “did not bind”. Also, the “binding selectivity (absent binding to TTR tetramers)” value in series [2] (in presence of TTR stabilizers (conclusion)) is “maintained”. Besides, the “binding to TTR tetramers in solution” value in series [2] (no stabilizer) is reported as “did not bind”. Besides, in series [3], the “binding affinity to misfolded TTR” value is given as “sub-nanomolar range”. In addition, the “binding to amyloidogenic TTR” value in series [4] (in the presence of TTR stabilizers tafamidis and diflunisal, 10 μg/mL) is reported as “maintained”. For the same molecule, the “EC50 value of antibody binding to TTR amyloid” value in series [4] (in the presence of diflunisal at 10 μg/mL) is reported as “increased”; in series [4] (in the presence of tafamidis at 10 μg/mL), “remained substantially unaffected”. In series [5], the “binding to ATTR oligomers in solution” value is reported as “virtually identical”.
